The target in assay [1] is T1, Peptide 1 (biotinylated N-terminus CCR8 peptide, amino acids 1-12) (human, also: biotinylated, position not given here).
T1 construct: Captured on streptavidin polystyrene beads
T1 peptide: MDYTLDLSVTTV
Description: flow cytometry, biotinylated peptide on streptavidin beads. Here is the method: (§1) The biotinylated human CCR8 peptides were captured on streptavidin polystyrene beads (Spherotech) in FACS buffer (PBS+2% Fetal Bovine Serum) at a final protein concentration of 50-100 ng/ml and incubated for 30 minutes at room temperature. Beads were washed twice with FACS buffer to remove unbound protein, centrifuged to pellet the beads, and resuspended and pooled together in StabilGuard (SurModics). The pooled biotinylated human CCR8 coated beads were added to hybridoma supernatant samples in a 96-well plate, such that the final antibody concentration was 5.0 μg/mL, and then incubated for one hour at room temperature.
(§2) Plates were washed twice with FACS buffer, centrifuged to pellet the beads, and supernatant was removed and resuspended in FACS buffer to remove unbound antibodies. Alexa Fluor 488 goat anti-human or rat IgG (Fcγ fragment specific) secondary antibodies (Jackson ImmunoResearch) made up in FACS buffer at 5.0 μg/mL were added to each well, resuspended with beads and incubated for 15 minutes at room temperature. Plates were washed twice with FACS buffer, centrifuged to pellet the beads, and supernatant was removed and resuspended in FACS buffer to remove unbound secondary antibodies. Samples were then resuspended in FACS buffer and read on either IntelliCyt® iQue Flow Cytometer.
(§3) Data are represented as a ratio of geometric mean binding to beads coated with specific peptide divided by geometric mean of binding to a bead coated with a negative control peptide (peptide with unrelated sequence). A value above two represents presence of binding.
Background: Flow cytometry measures light scatter and fluorescence of single cells or particles in a stream.

For assay [2], the target named is T2, Peptide 2 (biotinylated N-terminus CCR8 peptide, amino acids 7-18) (human, also: biotinylated, position not given here).
T2 construct: Captured on streptavidin polystyrene beads
T2 peptide: LSVTTVTDYYYP
Described as above. On the procedure:
as §1, §2, §3

Assay [3] has as its target T3, Peptide 4 (biotinylated N-terminus CCR8 peptide, amino acids 19-30) (human, also: biotinylated, position not given here).
T3 construct: Captured on streptavidin polystyrene beads
T3 peptide: DIFSSPCDAELI
The description is as above. On the procedure:
as §1, §2, §3

Assay [4] deals with T4, Peptide 5 (biotinylated N-terminus CCR8 peptide, amino acids 25-35) (human, also: biotinylated, position not given here).
T4 construct: Captured on streptavidin polystyrene beads
T4 peptide: CDAELIQTNGK
Described as above. Here is the method:
as §1, §2, §3

For assay [5], the target named is T5, Peptide 3 (biotinylated N-terminus CCR8 peptide, amino acids 13-24) (human, also: biotinylated, position not given here).
T5 construct: Captured on streptavidin polystyrene beads
T5 peptide: TDYYYPDIFSSP
Briefly: flow cytometry, biotinylated peptide on streptavidin beads, antibody 5 ug/mL. On the procedure: as §1
as §2, with “Cytometer. […]” for “Cytometer.”

Assay [6] deals with T6, cynomolgus monkey CCR8 (comprising threonine at position four) (cynomolgus monkey, UniProt O97665 1-356 (rhesus entry)).
T6 construct: also called Cyno CCR8; cynomolgus CCR8
Description: KinExA, 293T cells expressing cynomolgus CCR8. On the procedure:
For each equilibrium set, reference point controls included a sample with cell media only and a sample without cells. The equilibrium sets were incubated for 24 hours at room temperature, with shaking. After 24 hours of incubation, the supernatants were separated from the cell pellets via centrifugation at 500×g for five minutes. The supernatants of both high [Ab] and low [Ab] equilibrium sets were then run through a KinExA 3200 machine.
Each equilibrium sample set was read in duplicate on the KinExA machine. For low [Ab] equilibrium samples, 6.8 mL and 4.6 mL of each sample were run in duplicate, respectively, for human and cyno CCR8 equilibrium experiments. For high [Ab] equilibrium samples 16 μL and 75 μL of each sample were run in duplicate, respectively for human and cyno CCR8 equilibrium experiments.
For each equilibrium sample the free [Ab] was detected by running the equilibrium samples through the coated beads followed by a quick wash with the running buffer (1×PBS pH7.4+1% BSA+0.05% Sodium Azide). The secondary detection antibody (goat anti-huIgG (H+L) Alexa 647) was run through the flow cell at 680 ng/ml and 500 μL per run. The KinExA voltage output signal was used in KinExA software to calculate the Kd. […]

Assay [7] concerns the target T5, Peptide 3 (biotinylated N-terminus CCR8 …). Briefly: flow cytometry, biotinylated peptide on streptavidin beads. Here is the method: as §1, §2, §3
Assay [8] has as its target T1, Peptide 1 (biotinylated N-terminus CCR8 …). Description: flow cytometry, biotinylated peptide on streptavidin beads, antibody 5 ug/mL. On the procedure: as §1
as §2, with “Cytometer. […]” for “Cytometer.”

Where no end group is shown, it is not given here.

Here are results for two molecules from US20250171549A1 (Amgen, published 2025).

T6 sequence (O97665 other isoform, or with tags, fused parts or gaps): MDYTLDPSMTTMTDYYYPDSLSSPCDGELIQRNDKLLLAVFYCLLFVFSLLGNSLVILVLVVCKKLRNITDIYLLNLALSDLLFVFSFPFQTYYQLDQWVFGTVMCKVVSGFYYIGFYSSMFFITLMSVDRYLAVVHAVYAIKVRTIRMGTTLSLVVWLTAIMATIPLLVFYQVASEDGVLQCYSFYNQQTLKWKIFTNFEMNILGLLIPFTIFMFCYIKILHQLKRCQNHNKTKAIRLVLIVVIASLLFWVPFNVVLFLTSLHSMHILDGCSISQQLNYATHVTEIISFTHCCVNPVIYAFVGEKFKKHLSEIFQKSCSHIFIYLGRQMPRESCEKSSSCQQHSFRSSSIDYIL

B1: Antibody 2 IgG2 (antibody, V domains shown)
VH: QVQLVESGGGVVQPGRSLRLSCAASGFTFSNYGMHWVRQAPGKGLEWVAVISYDGSNKFYADSVKGRFTISRDNSKKTLYLQMSSLRVEDTAVYYCARAGGIGRFDYWGQGTLVTVSS
VL: DFVMTQTPLSLSVTPGQPASISCKYSQSLLHSDGKTYLFWYLQKPGQPPHLLIYEVSNRFSGVPDRFSGSGSGTDFTLKISRVEAEDVGLYYCMQTLKLPLTFGGGTKVEINR
notes: IgG2; tested as hybridoma supernatant
In the case of B1, the binding result in assay [1], in assay [2], in assay [3] and in assay [4] was “no binding” each time. In addition, the “ratio of geometric mean, peptide bead / negative control peptide bead” value in assay [5] was found to be 157.

B2: Antibody 1 IgG2 (antibody)
heavy: EVQLVESGGGLVKPGGSLRLSCAASGFTFSNARMGWVRQAPGKGLEWVGRIKSKTEGGTRDYAAPVKGRFTISRDDSKNTLYLQMNSLKTEDTAVYYCTSYSGVWGQGTMVTVSSASTKGPSVFPLAPCSRSTSESTAALGCLVKDYFPEPVTVSWNSGALTSGVHTFPAVLQSSGLYSLSSVVTVPSSNFGTQTYTCNVDHKPSNTKVDKTVERKCCVECPPCPAPPVAGPSVFLFPPKPKDTLMISRTPEVTCVVVDVSHEDPEVQFNWYVDGVEVHNAKTKPREEQFNSTFRVVSVLTVVHQDWLNGKEYKCKVSNKGLPAPIEKTISKTKGQPREPQVYTLPPSREEMTKNQVSLTCLVKGFYPSDIAVEWESNGQPENNYKTTPPMLDSDGSFFLYSKLTVDKSRWQQGNVFSCSVMHEALHNHYTQKSLSLSPGK
light: not shown
notes: as for B1
For the molecule B2, the Kd in assay [6] was 0.229 nM. The binding result in assay [2], in assay [7], in assay [3] and in assay [4] was “no binding” in each case. The “ratio of geometric mean, peptide bead / negative control peptide bead” value in assay [8] came to 3.

As a reminder, the Kd is the free concentration of one partner at which half of the binding sites on the other are occupied at equilibrium, for simple one-to-one binding.
